Test results: paper PMC3686915

Target: NFATc2 full length;cJun full length (;, UniProt Q13469-2;P05412 1-921;1-331, |)
Experiment: DNA pull-down, Western blot

GATAATATTTTTCCAGAATTACACAAATTCTGGAAAAATATTATC (structured_DNA, 5' biotin) [-45 NFAT hairpin]
binding result: binds
